Where two headings read alike, the source gives them in different places.
Assays:
rhu-c-Mpl (AA1-490-6H) = target: T1, rhu-c-Mpl (AA1-490-6H) (human, UniProt P40238 26-490); test: solution-equilibrium Biacore with soluble rhu-c-Mpl, KinExA Pro fit
T1 construct: Entire 490 amino acid extracellular domain with six C-terminal histidines, expressed in CHO cells; also called recombinant human c-Mpl protein; soluble c-Mpl
T1 sequence: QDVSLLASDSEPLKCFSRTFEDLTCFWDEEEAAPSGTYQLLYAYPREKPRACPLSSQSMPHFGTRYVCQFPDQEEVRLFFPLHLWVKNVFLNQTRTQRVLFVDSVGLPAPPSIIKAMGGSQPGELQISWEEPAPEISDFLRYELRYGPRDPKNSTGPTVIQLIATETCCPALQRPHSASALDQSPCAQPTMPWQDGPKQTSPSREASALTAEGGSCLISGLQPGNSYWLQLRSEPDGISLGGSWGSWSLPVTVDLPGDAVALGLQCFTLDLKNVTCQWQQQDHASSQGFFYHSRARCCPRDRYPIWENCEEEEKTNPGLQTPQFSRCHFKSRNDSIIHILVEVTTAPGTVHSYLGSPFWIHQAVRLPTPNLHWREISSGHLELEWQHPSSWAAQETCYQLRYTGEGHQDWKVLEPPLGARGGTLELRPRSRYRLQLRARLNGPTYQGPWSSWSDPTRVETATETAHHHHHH
Description: The affinities of these anti-c-Mpl mAbs to the soluble c-Mpl protein were determined in a solution-based Biacore analysis. Briefly, a fixed amount of rhu-c-Mpl was incubated with various concentrations of anti-c-Mpl mAbs at room temperature for ˜4 hours before being run over the same anti-c-Mpl mAbs immobilized at high density on a CM5 surface. In this assay the binding signal is proportional to the concentration of free rhu-c-Mpl at equilibrium with a given antibody concentration. The dissociation equilibrium constant (KD) was obtained from nonlinear regression of the competition curves using an n-curve one-site homogeneous binding model (KinExATM Pro software).

[1] = target: T2, human c-Mpl (full length, on cells) (human, UniProt P40238 26-635); test: cell-based or functional assay
T2 sequence: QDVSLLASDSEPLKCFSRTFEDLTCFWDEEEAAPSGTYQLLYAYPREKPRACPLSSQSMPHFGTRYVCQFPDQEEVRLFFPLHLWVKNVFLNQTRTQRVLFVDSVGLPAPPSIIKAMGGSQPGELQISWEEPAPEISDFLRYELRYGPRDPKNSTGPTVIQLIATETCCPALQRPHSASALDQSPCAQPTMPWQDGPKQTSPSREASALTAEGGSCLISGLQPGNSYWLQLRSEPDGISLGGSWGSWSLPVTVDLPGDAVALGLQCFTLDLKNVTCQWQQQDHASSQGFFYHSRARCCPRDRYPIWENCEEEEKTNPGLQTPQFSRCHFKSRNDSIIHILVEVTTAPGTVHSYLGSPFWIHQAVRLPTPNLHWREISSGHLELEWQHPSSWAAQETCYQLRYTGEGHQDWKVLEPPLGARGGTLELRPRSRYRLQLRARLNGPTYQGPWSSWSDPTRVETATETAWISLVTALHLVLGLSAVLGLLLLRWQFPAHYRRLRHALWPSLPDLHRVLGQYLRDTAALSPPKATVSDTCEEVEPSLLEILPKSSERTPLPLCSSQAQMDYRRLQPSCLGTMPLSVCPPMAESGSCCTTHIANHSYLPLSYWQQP

[2] = target: T2, human c-Mpl (full length, on cells); test: cell-based or functional assay; remark: listed apart in the source

B1: mAb 1.169 (antibody, IgG1, V domains shown)
VH: QVQLQQSGPELVKPGASVKISCKASGYGFSSSWMNWVKQRPGKGLEWIGRIYPGDGETSYNGEFKGKATLTADKSSSTAYMQLSSLTSEDSAVYFCASYYEGGYWGQGTLVTVSA
VL: DIVMTQAAPSLPVTPGESVSISCRSSKSLLHSNGNTYLFWFLQRPGQSPHLLIYRMSNLASGVPDRFSGSGSGTAFTLRISRVEAEDVGVYYCMQHLEYPYTFGGGTKLEIKR
notes: also called A6
Kd (rhu-c-Mpl (AA1-490-6H)): 0.48 nM | IC50 (nM), inhibition of rhuTPO (26 pM)-driven proliferation of 32D-hu-c-Mpl cells (CellTiter-Glo) [1]: 5.32 nM

B2: mAb 1.36 (antibody, IgG1, V domains shown)
VH: QVQLQQSGPELVKPGASVKISCKASGYGFSNSWMNWVRQRPGKGLEWIGRIYPGDGETSYNGEFVGKATLTADKSSSTAYMHLSSLTSEDSAVYFCASYYEGGYWGQGTLVTVS
VL: DIVMTQAAPSVPVTPGESVSISCRSSKSLLHSNGNTYLYWFLQRPGQSPQLLIYRMSNLASGVPDRFSGSGSGTAFTLRISRVEAEDVGVYYCMQHLEYPYTFGGGTKLEIKR
notes: also called A5
Kd (rhu-c-Mpl (AA1-490-6H)): 0.45 nM | IC50 (nM), inhibition of rhuTPO (26 pM)-driven proliferation of 32D-hu-c-Mpl cells (CellTiter-Glo) [1]: 1.25 nM

B3: mAb 1.78 (antibody, IgG1, V domains shown)
VH: QVQLQQSGPELVKPGASVKMSCKASGYAFSSSWLNWVRQRPGKGLEWIGRIYPGDGENHYNGKFKGKATLTADKSSSTGYMQLSSLTSEDSAVYFCASYYEGGYWGQGTLITVSA
VL: DIVMTQAAPSIPVTPGESVSISCRSDKSLLHSNGNTYLFWFLQRPGQSPQLLIYRMSNLASGVPDRFSGSGSGTAFTLRISGVEAEDVGVYYCMQHLEYPYTFGGGTKLEIK
notes: also called A3
Kd (rhu-c-Mpl (AA1-490-6H)): 0.072 nM | IC50 (nM), inhibition of rhuTPO (26 pM)-driven proliferation of 32D-hu-c-Mpl cells (CellTiter-Glo) [1]: 0.23 nM

B4: mAb 1.111 (antibody, IgG1, V domains shown)
VH: DVQLQESGPGLVKPSQSLSLTCTVTGYSITIDYTWNWIRQFPGNKLEWMGYITYSGSTDYNPSLKSRSSITRDTSMNQFFLQLNSVTTEDTATYYCARLGRRYALDYWGQGTSVTVSS
VL: DIQMTQSSSSFSVSLGDRVTITCKASEDIYIRLAWYQQKPGNAPRLLISAATSLETGIPSRFSGSGSGEDYTLTITSLQTEDVATYYCQQYWTTPWTFGGGTKLEIKR
notes: also called A4
Kd (rhu-c-Mpl (AA1-490-6H)): 0.036 nM | IC50 (nM), inhibition of rhuTPO (26 pM)-driven proliferation of 32D-hu-c-Mpl cells (CellTiter-Glo) [2]: 0.12 nM

B5: mAb 1.6 (antibody, IgG2b, V domains shown)
VH: DVQLQESGPGLVKPSQSLSLTCTVTGYSITSDYTWNWIRQFPGNKLEWMGYITYSGSTSYNPSLKSRNSITRDTSKNQFFLQLNSVTTEDTATYYCARLGRRYTMDYWGQGTSVTVSS
VL: DIQMTQSSSSFSVSLGDRVTITCMASEDIYIRLAWYQQKPGNAPRLLISAATSLETGVPSRFSGSGSGKDYTLSITSLQTEDVGTYYCQQYWSSPWTFGGGTKLEIN
notes: An Alexa Fluor 647 conjugate was used for CD34+ cell staining; also called Ab 1.6.1; A1
Kd (rhu-c-Mpl (AA1-490-6H)): 0.036 nM | IC50 (nM), inhibition of rhuTPO (26 pM)-driven proliferation of 32D-hu-c-Mpl cells (CellTiter-Glo) [2]: 0.03 nM

B6: mAb 1.75 (antibody, IgG2b, V domains shown)
VH: EVQLVESGGGLVQPKGSLKLSCAASGFSFNTYAMNWVRQAPGKGLEWIAHIRSKSNNFATYYADSVKDRFSISRDASENILFLQMNNLKTEDTAMYYCVRQGGDFPMDYWGQGTSVTVSS
VL: QIVLTQSPAIMSASPGEKVTISCSASSSVSYMYWYQQKPGSSPKPWIYRTSNLASGVPARFSGSGSGTSYSLTISNMEAEDAAAYYCQQYHSYPTTFGGGTKLEVK
notes: also called A2
Kd (rhu-c-Mpl (AA1-490-6H)): 0.01 nM | IC50 (nM), inhibition of rhuTPO (26 pM)-driven proliferation of 32D-hu-c-Mpl cells (CellTiter-Glo) [2]: 0.05 nM
